According to patent publication US20250320281A1:

Columns and labels:
Assay in all cases: cell-based or functional assay
[1] = target: HIV-1 Env of isolate CAAN (clade B pseudovirus) (HIV-1)
[2] = target: HIV-1 Env of isolate DU156 (clade C pseudovirus) (HIV-1)
[3] = target: HIV-1 Env of isolate ZM214 (clade C pseudovirus) (HIV-1)
[4] = target: HIV-1 JR-FL Env E168K (HIV-1 JR-FL)
[5] = target: HIV-1 92BR020 Env (pseudovirus) (HIV-1 isolate 92BR020 (clade B))
[6] = target: HIV-1 93IN905 Env (pseudovirus) (HIV-1 isolate 93IN905 (clade C))
[7] = target: HIV-1 APV17 Env (pseudovirus) (HIV-1 isolate APV17 (clade B))
[8] = target: HIV-1 APV6 Env (pseudovirus) (HIV-1 isolate APV6 (clade B))
[9] = target: HIV-1 MGRM-C-028 Env (pseudovirus) (HIV-1 isolate MGRM-C-028 (clade C))
[10] = target: HIV-1 Env of isolate MG RM-D-029 (HIV-1)
[11] = target: HIV-1 Env of isolate MGRM-F1-012 (HIV-1)
[12] = target: HIV-1 Env of pseudovirus MGRM-AG-006 (subtype AG) (HIV-1)
[13] = target: HIV-1 Env of pseudovirus MGRM-AG-012 (subtype AG) (HIV-1)
[14] = target: HIV-1 Env of pseudovirus MGRM-AG-013 (subtype AG) (HIV-1)
[15] = target: HIV-1 Env of isolate JRFL (HIV-1)
[16] = target: HIV-1 Env of isolate MG RM-D-001 (clade D), on pseudovirus (HIV-1)
[17] = target: HIV-1 Env of isolate MG RM-D-029 (clade D), on pseudovirus (HIV-1)
[18] = target: HIV-1 Env of isolate MGRM-Chronic-B-001 (HIV-1)
[19] = target: HIV-1 Env of isolate MGRM-F1-008 (clade F), on pseudovirus (HIV-1)
[20] = target: HIV-1 Env of isolate MGRM-F1-014 (clade F), on pseudovirus (HIV-1)
[21] = target: HIV-1 Env of isolate MGRM-F1-021 (clade F pseudovirus) (HIV-1)
[22] = target: HIV-1 Env of pseudovirus 92UG037 (subtype A) (HIV-1)
[23] = target: HIV-1 Env of pseudovirus 93UG077 (subtype A) (HIV-1)
[24] = target: HIV-1 Env of pseudovirus MGRM-A-006 (subtype A) (HIV-1)
[25] = target: HIV-1 Env of pseudovirus MGRM-A-008 (subtype A) (HIV-1)
[26] = target: HIV-1 93IN905 Env (HIV-1)
[27] = target: HIV-1 MGRM-AG-005 Env (HIV-1)
[28] = target: HIV-1 MGRM-C-026 Env (HIV-1)
[29] = target: HIV-1 MGRM-C-028 Env (HIV-1)
[30] = target: HIV-1 MGRM-D-001 Env (HIV-1)
[31] = target: HIV-1 NL43 Env (HIV-1)
[32] = target: HIV-1 92RW020 envelope glycoprotein (Env) on pseudovirus (HIV-1 isolate 92RW020 (clade A))
[33] = target: HIV-1 92TH021 envelope glycoprotein (Env) on pseudovirus (HIV-1 isolate 92TH021 (clade AE))
[34] = target: HIV-1 93IN905 envelope glycoprotein (Env) on pseudovirus (HIV-1 isolate 93IN905 (clade C))
[35] = target: HIV-1 APV6 envelope glycoprotein (Env) on pseudovirus (HIV-1 isolate APV6 (clade B))

Chain of 1443_C16 (PG16) (TCN-116) (antibody) (VH): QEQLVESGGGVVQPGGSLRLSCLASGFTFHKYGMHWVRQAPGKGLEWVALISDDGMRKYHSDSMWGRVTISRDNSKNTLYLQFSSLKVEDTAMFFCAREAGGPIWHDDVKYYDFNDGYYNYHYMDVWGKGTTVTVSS
Chain of 1443_C16 (PG16) (TCN-116) (antibody) (VL): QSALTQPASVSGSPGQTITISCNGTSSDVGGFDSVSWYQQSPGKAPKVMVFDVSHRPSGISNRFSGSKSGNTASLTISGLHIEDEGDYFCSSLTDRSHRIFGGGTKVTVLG

1443_C16 (PG16) (TCN-116) (antibody)
IC50 (neutralization, TZM-bl pseudovirus assay) [1]: 6.37 µg/mL
IC50 (neutralization, TZM-bl pseudovirus assay) [2]: < 0.01 µg/mL
IC50 (neutralization, TZM-bl pseudovirus assay) [3]: > 25 µg/mL
IC50 (ug/ml), pseudovirus neutralization, TZM-bl assay [4]: 0.006 µg/mL

5123_A06 (PGT-125) (antibody)
Neutralization by PGT-125, IC50 [5]: 0.0214 µg/mL
Neutralization by PGT-125, IC80 [5]: 0.0738 µg/mL
Neutralization by PGT-125, IC90 [5]: 0.156 µg/mL
Neutralization by PGT-125, IC95 [5]: 0.323 µg/mL
Neutralization by PGT-125, IC50 [6]: 0.0137 µg/mL
Neutralization by PGT-125, IC80 [6]: 0.0494 µg/mL
Neutralization by PGT-125, IC90 [6]: 0.106 µg/mL
Neutralization by PGT-125, IC95 [6]: 0.216 µg/mL
Neutralization by PGT-125, IC50 [7]: 7.31 µg/mL
Neutralization by PGT-125, IC80 [7]: > 10 µg/mL
Neutralization by PGT-125, IC90 [7]: > 10 µg/mL
Neutralization by PGT-125, IC95 [7]: > 10 µg/mL
Neutralization by PGT-125, IC50 [8]: 0.0359 µg/mL
Neutralization by PGT-125, IC80 [8]: 0.133 µg/mL
Neutralization by PGT-125, IC90 [8]: 0.288 µg/mL
Neutralization by PGT-125, IC95 [8]: 0.597 µg/mL
Neutralization by PGT-125, IC50 [9]: 5.78 µg/mL
Neutralization by PGT-125, IC80 [9]: > 10 µg/mL
Neutralization by PGT-125, IC90 [9]: > 10 µg/mL
Neutralization by PGT-125, IC95 [9]: > 10 µg/mL

VRC01 (antibody)
IC50 [10]: 3.22 µg/mL
IC50 [11]: 0.488 µg/mL
IC50, pseudovirus neutralization [12]: 0.344 µg/mL
IC50, pseudovirus neutralization [13]: 0.031 µg/mL
IC50, pseudovirus neutralization [14]: 0.197 µg/mL

PGV04 (antibody)
IC50 (µg/mL), pseudovirus neutralization [15]: 0.032 µg/mL
IC50 (µg/mL), pseudovirus neutralization [16]: > 50 µg/mL
IC50 (µg/mL), pseudovirus neutralization [17]: 1.56 µg/mL
IC50 (µg/mL), pseudovirus neutralization [18]: 0.048 µg/mL
IC50 (µg/mL), pseudovirus neutralization [19]: 1.03 µg/mL
IC50 (µg/mL), pseudovirus neutralization [20]: 0.02 µg/mL
IC50 (µg/mL), pseudovirus neutralization [21]: 0.031 µg/mL
IC50, pseudovirus neutralization [22]: 0.145 µg/mL
IC50, pseudovirus neutralization [23]: 0.083 µg/mL
IC50, pseudovirus neutralization [24]: 0.244 µg/mL
IC50, pseudovirus neutralization [25]: 0.555 µg/mL

4877_D15 (PGT-122) (antibody)
Neutralization by PGT-122, IC50 [26]: 0.0138 µg/mL
Neutralization by PGT-122, IC80 [26]: 0.0505 µg/mL
Neutralization by PGT-122, IC90 [26]: 0.108 µg/mL
Neutralization by PGT-122, IC95 [26]: 0.217 µg/mL
Neutralization by PGT-122, IC50 [27]: > 10 µg/mL
Neutralization by PGT-122, IC80 [27]: > 10 µg/mL
Neutralization by PGT-122, IC90 [27]: > 10 µg/mL
Neutralization by PGT-122, IC95 [27]: > 10 µg/mL
Neutralization by PGT-122, IC50 [28]: 0.0089 µg/mL
Neutralization by PGT-122, IC80 [28]: 0.037 µg/mL
Neutralization by PGT-122, IC90 [28]: 0.0849 µg/mL
Neutralization by PGT-122, IC95 [28]: 0.181 µg/mL
Neutralization by PGT-122, IC50 [29]: 2.06 µg/mL
Neutralization by PGT-122, IC80 [29]: > 10 µg/mL
Neutralization by PGT-122, IC90 [29]: > 10 µg/mL
Neutralization by PGT-122, IC95 [29]: > 10 µg/mL
Neutralization by PGT-122, IC50 [30]: 0.867 µg/mL
Neutralization by PGT-122, IC80 [30]: 4.48 µg/mL
Neutralization by PGT-122, IC90 [30]: > 10 µg/mL
Neutralization by PGT-122, IC95 [30]: > 10 µg/mL
Neutralization by PGT-122, IC50 [31]: > 10 µg/mL
Neutralization by PGT-122, IC80 [31]: > 10 µg/mL
Neutralization by PGT-122, IC90 [31]: > 10 µg/mL
Neutralization by PGT-122, IC95 [31]: > 10 µg/mL

1496_C09 (PG9) (TCN-109) (antibody)
neutralization IC50 [32]: 0.161 µg/mL
neutralization IC80 [32]: 1.04 µg/mL
neutralization IC90 [32]: 3.4 µg/mL
neutralization IC50 [33]: 0.103 µg/mL
neutralization IC80 [33]: 0.448 µg/mL
neutralization IC90 [33]: 1.07 µg/mL
neutralization IC95 [33]: 2.43 µg/mL
neutralization IC50 [34]: 0.048 µg/mL
neutralization IC80 [34]: 0.308 µg/mL
neutralization IC90 [34]: 0.981 µg/mL
neutralization IC95 [34]: 3.31 µg/mL
neutralization IC50 [35]: 0.214 µg/mL
neutralization IC80 [35]: 1.13 µg/mL
neutralization IC90 [35]: 3.21 µg/mL
neutralization IC95 [35]: 9.65 µg/mL
